Measured values taken from article PMC10786891, “Massively parallel profiling of RNA-targeting CRISPR-Cas13d”.
Changes are numbered by the printed parent chain. Names and notes keep the numbering of the source.

T1: EsCas13d, nuclease-dead (Eubacterium siraeum, UniProt B0MS50, R295A;H300A;R849A;H854A)
T1 sequence: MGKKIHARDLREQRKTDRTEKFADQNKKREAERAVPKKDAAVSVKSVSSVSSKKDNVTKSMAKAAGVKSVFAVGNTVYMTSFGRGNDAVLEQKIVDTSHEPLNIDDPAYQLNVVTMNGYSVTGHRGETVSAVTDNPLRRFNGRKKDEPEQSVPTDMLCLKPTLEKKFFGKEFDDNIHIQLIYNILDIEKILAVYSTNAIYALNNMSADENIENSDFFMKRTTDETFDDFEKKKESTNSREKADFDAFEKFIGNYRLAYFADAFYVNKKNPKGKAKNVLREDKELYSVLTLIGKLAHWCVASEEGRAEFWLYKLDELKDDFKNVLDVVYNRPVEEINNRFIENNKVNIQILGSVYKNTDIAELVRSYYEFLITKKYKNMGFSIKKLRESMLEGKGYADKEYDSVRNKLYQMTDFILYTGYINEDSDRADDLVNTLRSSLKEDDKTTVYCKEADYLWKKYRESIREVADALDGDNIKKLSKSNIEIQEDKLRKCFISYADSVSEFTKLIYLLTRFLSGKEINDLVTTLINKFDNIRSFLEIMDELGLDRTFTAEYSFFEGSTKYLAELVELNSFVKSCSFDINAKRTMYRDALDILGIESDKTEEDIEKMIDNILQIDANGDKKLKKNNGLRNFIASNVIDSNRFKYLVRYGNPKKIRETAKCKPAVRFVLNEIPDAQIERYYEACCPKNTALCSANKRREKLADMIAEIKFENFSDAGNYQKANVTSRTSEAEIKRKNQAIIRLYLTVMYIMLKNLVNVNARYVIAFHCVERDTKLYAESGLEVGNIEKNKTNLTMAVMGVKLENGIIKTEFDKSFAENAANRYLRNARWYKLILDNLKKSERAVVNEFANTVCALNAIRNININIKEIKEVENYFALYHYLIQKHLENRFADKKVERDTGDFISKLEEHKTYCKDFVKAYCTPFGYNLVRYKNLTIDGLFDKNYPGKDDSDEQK

B1: target 3 C16U (mixed)
RNA 1: CACCCGUGCAAAAUUGCAGGGGUCUAAAACGACCUGAAUAUUUCAGAUCAAA
RNA 2: GGGAAUGGAUCCACAUCUACGAAUUCGUUUUUGAUUUGAAAUAUUCAGGUCUGCAGAUCGGAAGAGCACACGU
B2: target 3 A9G,U22C (mixed)
RNA 1: B1 RNA 1
RNA 2: B1 RNA 2 with U30C, U36C, A43G
B3: target 3 insC 3' of 11,insG 3' of 2 (mixed)
RNA 1: B1 RNA 1
RNA 2: GGGAAUGGAUCCACAUCUACGAAUUCGUUUUUGAUCUGAAACUAUUCAGGUGCUGCAGAUCGGAAGAGCACACGU
B4: target 3 C1U,U2A (mixed)
RNA 1: B1 RNA 1
RNA 2: B1 RNA 2 with U36C, U50A, C51U
B5: target 3 G4C,U8A (mixed)
RNA 1: B1 RNA 1
RNA 2: B1 RNA 2 with U36C, U44A, G48C
B6: target 3 U2A,A12U (mixed)
RNA 1: B1 RNA 1
RNA 2: B1 RNA 2 with U36C, A40U, U50A
B7: target 3 A13G,U22G (mixed)
RNA 1: B1 RNA 1
RNA 2: B1 RNA 2 with U30G, U36C, A39G
B8: target 3 U2A,U22C (mixed)
RNA 1: B1 RNA 1
RNA 2: B1 RNA 2 with U30C, U36C, U50A
B9: target 3 G3U,U8A (mixed)
RNA 1: B1 RNA 1
RNA 2: B1 RNA 2 with U36C, U44A, G49U
B10: target 3 C6A,A9G (mixed)
RNA 1: B1 RNA 1
RNA 2: B1 RNA 2 with U36C, A43G, C46A
B11: target 3 A5U,C6A (mixed)
RNA 1: B1 RNA 1
RNA 2: B1 RNA 2 with U36C, C46A, A47U
B12: target 3 insU 3' of 22,insU 3' of 13 (mixed)
RNA 1: B1 RNA 1
RNA 2: GGGAAUGGAUCCACAUCUACGAAUUCGUUUUUUGAUCUGAUAAUAUUCAGGUCUGCAGAUCGGAAGAGCACACGU
B13: target 3 insG 3' of 6,insA 3' of 3 (mixed)
RNA 1: B1 RNA 1
RNA 2: B3 RNA 2 with C42U, U43A, A44U, U46C, C47G, U51A, G52U
B14: target 3 insA 3' of 6,insC 3' of 5 (mixed)
RNA 1: B1 RNA 1
RNA 2: B3 RNA 2 with C42U, U43A, A44U, U46C, C47A, G49C, U51G, G52U
B15: target 3 C1A,C16U (mixed)
RNA 1: B1 RNA 1
RNA 2: B1 RNA 2 with C51A
B16: target 3 insU 3' of 16,insC 3' of 3 (mixed)
RNA 1: B1 RNA 1
RNA 2: B3 RNA 2 with G38U, A39G, C42A, U51C, G52U
B17: target 3 U21A,U22A (mixed)
RNA 1: B1 RNA 1
RNA 2: B1 RNA 2 with U30A, U31A, U36C
B18: target 3 A5U,U8G (mixed)
RNA 1: B1 RNA 1
RNA 2: B1 RNA 2 with U36C, U44G, A47U
B19: target 3 insC 3' of 13,insU 3' of 4 (mixed)
RNA 1: B1 RNA 1
RNA 2: B3 RNA 2 with A40C, C42A, G50U, U51G, G52U
B20: target 3 complement block 18-20 (mixed)
RNA 1: B1 RNA 1
RNA 2: B1 RNA 2 with U32A, G33C, A34U, U36C
B21: target 3 insG 3' of 2,insA 3' of 1 (mixed)
RNA 1: B1 RNA 1
RNA 2: GGGAAUGGAUCCACAUCUACGAAUUCGUUUUUGAUCUGAAAUAUUCAGGUGCAUGCAGAUCGGAAGAGCACACGU
B22: target 3 del4,del8 (mixed)
RNA 1: B1 RNA 1
RNA 2: GGGAAUGGAUCCACAUCUACGAAUUCGUUUUUGAUCUGAAAUAUCAGUCUGCAGAUCGGAAGAGCACACGU
B23: target 3 C1G,U8A (mixed)
RNA 1: B1 RNA 1
RNA 2: B1 RNA 2 with U36C, U44A, C51G
B24: target 3 insC 3' of 22,insA 3' of 22 (mixed)
RNA 1: B1 RNA 1
RNA 2: GGGAAUGGAUCCACAUCUACGAAUUCGUUUCAUUGAUCUGAAAUAUUCAGGUCUGCAGAUCGGAAGAGCACACGU
B25: target 1 insC 3' of 17,insU 3' of 2 (mixed)
RNA 1: CACCCGUGCAAAAAUGCAGGGGUCUAAAACUGAGCGGAUAACCUCUCUAUGG
RNA 2: GGGAAUGGAUCCACAUCUACGAAUUCGUACCAUAGCAGAGGUUAUCCGCUCUACCGAGAUCGGAAGAGCACACGU
B26: target 1 insG 3' of 3,insC 3' of 1 (mixed)
RNA 1: B25 RNA 1
RNA 2: GGGAAUGGAUCCACAUCUACGAAUUCGUACCAUAGAGAGGUUAUCCGCUGCACCCGAGAUCGGAAGAGCACACGU
B27: target 1 C2U,G5A (mixed)
RNA 1: B25 RNA 1
RNA 2: GGGAAUGGAUCCACAUCUACGAAUUCGUACCAUAGAGAGGUUAUCCACUUACCGAGAUCGGAAGAGCACACGU
B28: target 1 insA 3' of 13,insG 3' of 2 (mixed)
RNA 1: B25 RNA 1
RNA 2: B25 RNA 2 with C36A, A37G, G38A, A39G, G40A, U52G

Each binder was assayed against T1, EsCas13d, nuclease-dead (assay: crRNA (strand 1, pre-loaded); Mg2+; 40 mM Tris-HCl pH 7.5, 150 mM NaCl, 6 mM MgCl2, 1 mM DTT, 0.1% Tween-20, 0.2 mg/ml BSA; 25 C; 10 min per concentration, then washed). Conditions: tags: His6-TwinStrep-SUMO cleaved; N-terminal SNAP kept (SNAP-Surface 488); label: 3' end held by stalled T7 RNA polymerase.
In the case of B1, the Kd is reported as 82.5 ± 14 nM. B2 was tested, and the Kd was 25.9 ± 4 nM. In the case of B3, the Kd is reported as 54 ± 14 nM. B4 gave a Kd of 86 ± 24 nM. With B5 the Kd was 71.5 ± 10 nM. B6 gave a Kd of 79 ± 17 nM. B7 showed a Kd of 67 ± 26 nM. In the case of B8, the Kd is reported as 23.1 ± 3.7 nM. Binder B9 has a Kd of 89 ± 14.5 nM. B10 showed a Kd of 59.5 ± 13 nM. Work on B11 yielded a Kd of 29.9 ± 2.7 nM. Work on B12 yielded a Kd of 71 ± 33 nM. B13 gave a Kd of 10.4 ± 1.15 nM. Work on B14 yielded a Kd of 7.3 ± 0.55 nM. B15 was tested, and the Kd was ~91 nM. For B16, the Kd was 64.5 ± 10 nM. For B17, the Kd was 26.6 ± 3 nM. With B18 the Kd was 92.5 ± 16.5 nM. In the case of B19, the Kd is reported as 59.5 ± 17.5 nM. In the case of B20, the Kd is reported as 26.1 ± 5.05 nM. B21 gave a Kd of 54.2 ± 6.65 nM. Binder B22 has a Kd of 97 ± 29 nM. Binder B23 has a Kd of 45.5 ± 15.5 nM. In the case of B24, the Kd is reported as 20.2 ± 2.4 nM. For B25, the Kd was 55 ± 18 nM. In the case of B26, the Kd is reported as 11.5 ± 0.9 nM. In the case of B27, the Kd is reported as 49 ± 9 nM. For B28, the Kd was 3.54 ± 0.28 nM.
